The values below come from US20080032931A1.

The target in this experiment is HV62, synthetic peptide corresponding to residues 33 to 94 of human VAMP-2 (human) (UniProt P63027).

As to “enterokinase-nicked recombinant single-chain TeNT, wild type L chain (enzyme)”, the Initial rate of cleavage of HV62 (nmol · min^-1mg^-1) turned out to be 22.7.
